In paper PMC3378860:

Columns and labels:
Assay in all cases: EMSA
[1] = tested on: SWI/SNF complex ((yeast))
ISW2 complex ((yeast)) = tested on: ISW2 complex ((yeast))
[2] = tested on: I-S-I complex (ISW2 with Snf2 ATPase domain) ((yeast))

217 bp DNA gave a Kd [1] of 20 nM, a Kd (ISW2 complex ((yeast))) of 25 nM and a Kd [2] of 31 nM.
